From patent publication US20120301394A1 (published 2012)

T1: Recombinant mouse MMR (R&D systems) (mouse, UniProt Q61830 20-1388)
T1 construct: Bought recombinant extracellular portion of mouse MMR with a C-terminal His tag; It was immobilized on the CM5 chip for SPR and coated on plates for PE-ELISA; The SPR methods say only 'MMR'; also called mMMR; recombinant MMR
T1 sequence: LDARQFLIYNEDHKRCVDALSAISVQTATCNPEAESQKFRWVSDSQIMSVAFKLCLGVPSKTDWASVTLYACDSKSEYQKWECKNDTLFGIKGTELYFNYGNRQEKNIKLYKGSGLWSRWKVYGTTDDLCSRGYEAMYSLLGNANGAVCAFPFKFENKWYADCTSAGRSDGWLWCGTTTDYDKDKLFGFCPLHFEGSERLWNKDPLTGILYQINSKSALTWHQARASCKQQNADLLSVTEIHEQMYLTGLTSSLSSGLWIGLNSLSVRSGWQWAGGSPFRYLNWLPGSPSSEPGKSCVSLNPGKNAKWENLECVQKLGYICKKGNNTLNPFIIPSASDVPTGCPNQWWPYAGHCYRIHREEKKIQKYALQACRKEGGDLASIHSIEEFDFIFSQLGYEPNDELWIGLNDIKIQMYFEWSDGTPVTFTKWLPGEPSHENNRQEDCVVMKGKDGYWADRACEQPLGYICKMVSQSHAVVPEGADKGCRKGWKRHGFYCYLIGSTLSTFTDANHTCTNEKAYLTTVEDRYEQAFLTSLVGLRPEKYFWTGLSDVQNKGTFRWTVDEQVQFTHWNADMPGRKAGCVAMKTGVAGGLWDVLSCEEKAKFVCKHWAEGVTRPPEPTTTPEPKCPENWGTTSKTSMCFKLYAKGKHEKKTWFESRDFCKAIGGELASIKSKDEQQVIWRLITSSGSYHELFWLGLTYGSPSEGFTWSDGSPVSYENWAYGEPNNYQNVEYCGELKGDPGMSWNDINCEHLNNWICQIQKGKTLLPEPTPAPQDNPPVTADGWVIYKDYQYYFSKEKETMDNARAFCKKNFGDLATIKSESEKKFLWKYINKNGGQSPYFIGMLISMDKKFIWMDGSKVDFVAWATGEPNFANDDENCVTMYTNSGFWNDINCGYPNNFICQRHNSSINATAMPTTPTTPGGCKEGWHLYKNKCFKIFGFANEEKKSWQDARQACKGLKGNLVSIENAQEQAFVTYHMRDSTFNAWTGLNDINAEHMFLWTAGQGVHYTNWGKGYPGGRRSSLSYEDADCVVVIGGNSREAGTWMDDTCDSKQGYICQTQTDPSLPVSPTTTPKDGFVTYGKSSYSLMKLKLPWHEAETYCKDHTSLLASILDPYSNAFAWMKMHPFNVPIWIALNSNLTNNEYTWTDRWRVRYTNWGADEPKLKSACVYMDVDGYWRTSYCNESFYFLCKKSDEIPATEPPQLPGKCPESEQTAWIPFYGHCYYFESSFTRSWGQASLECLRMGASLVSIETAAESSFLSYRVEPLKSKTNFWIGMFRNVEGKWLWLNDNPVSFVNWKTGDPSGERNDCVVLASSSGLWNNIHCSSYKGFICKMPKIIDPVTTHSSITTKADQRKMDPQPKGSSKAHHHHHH

T2: Recombinant human MMR (R&D systems) (human, UniProt P22897 19-1383)
T2 construct: Bought protein (R&D Systems #2534) coated on ELISA plates; also called hMMR; MRC1
T2 sequence: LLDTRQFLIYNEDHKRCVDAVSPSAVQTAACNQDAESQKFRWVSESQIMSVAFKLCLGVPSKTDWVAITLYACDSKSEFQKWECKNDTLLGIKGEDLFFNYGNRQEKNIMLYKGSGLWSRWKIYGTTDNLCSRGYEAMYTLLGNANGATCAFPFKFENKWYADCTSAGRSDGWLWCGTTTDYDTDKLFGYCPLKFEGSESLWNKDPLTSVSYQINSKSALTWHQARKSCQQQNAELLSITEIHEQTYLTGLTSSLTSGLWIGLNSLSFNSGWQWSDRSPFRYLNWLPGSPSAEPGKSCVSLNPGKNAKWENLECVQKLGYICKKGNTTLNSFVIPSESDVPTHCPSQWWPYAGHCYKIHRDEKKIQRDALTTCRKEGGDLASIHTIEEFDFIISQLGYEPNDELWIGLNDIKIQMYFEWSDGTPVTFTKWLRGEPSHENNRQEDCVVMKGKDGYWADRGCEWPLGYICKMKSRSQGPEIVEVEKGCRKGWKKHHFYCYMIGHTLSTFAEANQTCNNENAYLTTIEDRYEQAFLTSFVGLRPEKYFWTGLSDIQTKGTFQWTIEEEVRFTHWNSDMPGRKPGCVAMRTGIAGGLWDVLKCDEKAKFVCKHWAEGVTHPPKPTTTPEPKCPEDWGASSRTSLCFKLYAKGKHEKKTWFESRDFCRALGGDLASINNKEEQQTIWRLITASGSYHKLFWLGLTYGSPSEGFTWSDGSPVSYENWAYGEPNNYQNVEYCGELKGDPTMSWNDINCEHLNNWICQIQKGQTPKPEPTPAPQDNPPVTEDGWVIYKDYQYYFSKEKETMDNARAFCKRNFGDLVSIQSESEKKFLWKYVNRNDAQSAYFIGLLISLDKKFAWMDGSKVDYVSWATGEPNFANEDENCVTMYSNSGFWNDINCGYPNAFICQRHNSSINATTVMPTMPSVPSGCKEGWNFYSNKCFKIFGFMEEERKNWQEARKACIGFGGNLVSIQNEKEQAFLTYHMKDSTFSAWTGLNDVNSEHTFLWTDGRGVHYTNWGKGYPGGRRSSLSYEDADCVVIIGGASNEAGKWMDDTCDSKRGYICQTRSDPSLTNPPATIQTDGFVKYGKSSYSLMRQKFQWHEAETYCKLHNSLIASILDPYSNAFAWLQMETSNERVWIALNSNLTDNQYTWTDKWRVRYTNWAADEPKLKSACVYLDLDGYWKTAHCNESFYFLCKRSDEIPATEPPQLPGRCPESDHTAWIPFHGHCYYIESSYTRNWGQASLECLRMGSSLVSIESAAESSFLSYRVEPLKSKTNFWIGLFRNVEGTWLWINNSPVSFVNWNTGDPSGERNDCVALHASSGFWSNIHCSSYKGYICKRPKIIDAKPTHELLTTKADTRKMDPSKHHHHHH

B1: anti-MMR Nanobody clone 1 (VHH)
VHH: QVQLQESGGGLVQPGGSLRLSCAASGNIFSINAIGWYRQAPGKQRELVATITLSGSTNYADSVKGRFSISRDNAKNTVYLQMNSLKPEDTAVYYCNANTYSDSDVYGYWGQGTQVTVSS
notes: Monovalent alpaca VHH against mouse MMR; Alexa-fluor labelled for flow cytometry and immunofluorescence; also called Anti-MMR Nb1; anti-MMR Nb clone 1
B2: bivalent anti-MMR Nanobody 1 with (Gly4Ser)3 linker (VHH)
chain: QVQLQESGGGLVQPGGSLRLSCAASGNIFSINAIGWYRQAPGKQRELVATITLSGSTNYADSVKGRFSISRDNAKNTVYLQMNSLKPEDTAVYYCNANTYSDSDVYGYWGQGTQVTVSSGGGGSGGGGSGGGGSQVQLQESGGGLVQPGGSLRLSCAASGNIFSINAIGWYRQAPGKQRELVATITLSGSTNYADSVKGRFSISRDNAKNTVYLQMNSLKPEDTAVYYCNANTYSDSDVYGYWGQGTQVTVSSHHHHHH
notes: Two copies of Nb clone 1 in one chain joined by a (G4S)3 linker, with a C-terminal His tag; also called biv MMR linker 1 GS; MMR biv (Gly4Ser)3
B3: bivalent anti-MMR Nanobody 1 with llama IgG2 hinge linker (VHH)
chain: QVQLQESGGGLVQPGGSLRLSCAASGNIFSINAIGWYRQAPGKQRELVATITLSGSTNYADSVKGRFSISRDNAKNTVYLQMNSLKPEDTAVYYCNANTYSDSDVYGYWGQGTQVTVSSAHHSEDPSSKAPKAPMAQVQLQESGGGLVQPGGSLRLSCAASGNIFSINAIGWYRQAPGKQRELVATITLSGSTNYADSVKGRFSISRDNAKNTVYLQMNSLKPEDTAVYYCNANTYSDSDVYGYWGQGTQVTVSSHHHHHH
notes: Two copies of Nb clone 1 in one chain joined by the llama IgG2 hinge linker, with a C-terminal His tag; also called biv MMR linker 2 g2c; MMR biv g2c
B4: NbhMMRm15.43 (VHH)
VHH: QVQLQESGGTLVQPGGSLRLSCAASGSTFSINNMGWYRQAPGKQRELVAGITGGNTHYADSVKGRFTISRDNAKNTMYLQMNGLKPEDTAVYYCNANWGAYWGQGTQVTVSS
notes: Tested as a periplasmic extract in PE-ELISA
B5: NbhMMRm11.5 (VHH)
VHH: QVQLQESGGGLVQPGGSLMLSCAASGNIFTINRMGWYRQAPGKQRELVAAITSGGNTNYADSVKGRFTISRDNAKNTVYLQMNSLKPEDTAVYYCNAAIVTMTSPYSDYWGQGTQVTVSS
notes: as for B4
B6: bivalent anti-MMR Nanobody 1 with human IgA hinge linker (VHH)
chain: QVQLQESGGGLVQPGGSLRLSCAASGNIFSINAIGWYRQAPGKQRELVATITLSGSTNYADSVKGRFSISRDNAKNTVYLQMNSLKPEDTAVYYCNANTYSDSDVYGYWGQGTQVTVSSSPSTPPTPSPSTPPASQVQLQESGGGLVQPGGSLRLSCAASGNIFSINAIGWYRQAPGKQRELVATITLSGSTNYADSVKGRFSISRDNAKNTVYLQMNSLKPEDTAVYYCNANTYSDSDVYGYWGQGTQVTVSSHHHHHH
notes: Two copies of Nb clone 1 in one chain joined by the human IgA hinge linker, with a C-terminal His tag; also called biv MMR linker 3 IgA; MMR biv IgA
B7: NbhMMRm16.95 (VHH)
VHH: QVQLQESGGGLVQPGGSLGLSCAASGRIASISAMGWYRQAPGKQRELVAAITGSGRTNYADSVKGRFTISRDNAKNTVYLQMNSLKPEDTAVYYCNLLMVDYGLGLGTDYWGQGTQVTVSS
notes: as for B4
B8: NbhmMMRm7.67 (VHH)
VHH: QVQLQESGGGLVQAGGSLRLSCVDQGRTFSVNAMAWYRQAPGKQRELVASITSSGLDTQYAEGMKGRFTISKGNDKFSTYLQMNNLKPDDTAVYYCNAERWDNGMVYWGKGTQVTVSS
B9: anti-MMR Nanobody clone 3 (VHH)
VHH: QVQLQESGGGLVQAGGSLRLSCAASGRTFSRDAMGWFRQAPGKEREFVAGISWSGGSTYYADSVKGRFTISRDGAKNTVNLQMNSLKPEDTAVYYCAASSIYGSAVVDGLYDYWGQGTQVTVSS
notes: also called Anti-MMR Nb3; Nb clone 3
B10: NbhmMMRm26.70 (VHH)
VHH: QVQLQESGGGLVQPGGSLRLSCTASGFPFSSAPMSWVRQAPGKELEWVSYIGYTGTITDYANSVKGRFTISRDNAKNRLYLQMNSLKPEDTAVYFCAQGYARLIADSDLVRGQGTQVTVSS

How the values were obtained:
[1] = biological target: T1, Recombinant mouse MMR (R&D systems); assay: SPR, BIAcore T100, MMR immobilized on CM5 chip, Nb as analyte
Description: (§1) Affinity analysis was performed using a BIAcore T100 (GE Healthcare) with HEPES-buffered saline running buffer (10 mM HEPES with 0.15 M NaCl, 3.4 mM EDTA and 0.005% surfactant P20 at pH 7.4). MRR was immobilized on a CM5 chip in acetate buffer 50 mM (pH 5.0), resulting in 2100 RU MMR coated on the chip. A second channel on the same chip was activated/deactivated in a similar way and served as a negative control. The MMR Nanobodies were used as analytes in eleven different concentrations, ranging from 1 to 2000 nM, at a flow rate of […]. Glycine-HCl 50 mM (pH 2.0) was used for elution. The kinetic and equilibrium parameters (kd, ka and KD) values were calculated from the combined sensogram of all concentrations using BIAcore T100 evaluation software 2.02 (GE Healthcare).
Nanobodies (Nb) were raised against the recombinant extracellular portion of MMR (α-MMR Nb), as described in the Materials and Methods (see also Example 9; Table 4). The binding characteristics of the monovalent anti-MMR nanobodies were compared using surface Plasmon resonance measurements (Table 5). […] Further, bivalent nanobodies were constructed by linking two anti-MMR nanobody 1 entities using (G₄S)₃ ([…]; SEQ ID NO:121), llama IgG2 hinge ([…]; SEQ ID NO:122) or human IgA hinge ([…] SEQ ID NO:123) linkers. […]

[2] = biological target: T1, Recombinant mouse MMR (R&D systems); assay: SPR on immobilized recombinant MMR
Description: as §1
Nanobodies (Nb) were raised against the recombinant extracellular portion of MMR (α-MMR Nb), as described in the Materials and Methods (see also Example 9; Table 4). The binding characteristics of the monovalent anti-MMR nanobodies were compared using surface Plasmon resonance measurements (Table 5). […] Further, bivalent nanobodies were constructed by linking two anti-MMR nanobody 1 entities using (G₄S)₃ ([…]; SEQ ID NO:121), llama IgG2 hinge ([…]; SEQ ID NO:122) or human IgA hinge ([…] SEQ ID NO:123) linkers. […] As a negative control nanobody in all experiments, we consistently used α-BCII10 Nb, which is a binder of the β-lactamase BCII enzyme of Bacillus cereus.

[3] = biological target: T1, Recombinant mouse MMR (R&D systems); assay: SPR, BIAcore T100, MMR immobilized on CM5 chip, bivalent Nb as analyte
Description: as §1

[4] = biological target: T2, Recombinant human MMR (R&D systems); assay: PE-ELISA, periplasmic extract on coated human MMR, OD405 at least 3x over milk-blocking proteins
[5] = biological target: T2, Recombinant human MMR (R&D systems); assay: listed as a cross-reactive Nb; selection by PE-ELISA on human MMR (Example 26)
[6] = biological target: T1, Recombinant mouse MMR (R&D systems); assay: listed as a cross-reactive Nb; selection by PE-ELISA on mouse MMR (Example 26)

Row | Binder | Kd [3] [nM] | fold higher avidity compared to the monovalent clone 1 nanobody [2] [fold] | binding result [4] | further results
1 | B1 |  |  |  | Kd [1]: 23.1 nM; fold higher apparent affinity compared to nanobody clone 3 [2]: 8 fold
2 | B2 | 4.22 | 5 |  | 
3 | B3 | 4.04 | 5 |  | 
4 | B4 |  |  | binds | 
5 | B5 |  |  | binds | 
6 | B6 | 4.69 | 5 |  | 
7 | B7 |  |  | binds | 
8 | B8 |  |  |  | binding result [5]: binds
9 | B9 |  |  |  | Kd [1]: 191 nM
10 | B10 |  |  |  | binding result [6]: binds; binding result [5]: binds
